B1: Storkhead-box protein 2, residues 64 to 141; numbered along this chain, Q9P2F5 (parent)
chain: SPISQSQFIPLGEILCLAISAMNSARKPVTQEALMEHLTTCFPGVPTPSQEILRHTLNTLVRERKIYPTPDGYFIVTP
B2: MEF2-activating motif and SAP domain-containing transcriptional regulator, residues 170 to 204; numbered along this chain, Q6ZN01 (parent)
chain: LKLEELTVSELRQQLRLRGLPVSGTKSMLLERMRG

Variants of: B1
Experiment: abundance fitness (aPCA) (normalised: wild type 0, dead -1); higher = more abundant; growth selection in yeast, the domain comes from the species named
Conditions: Homo sapiens

Abundance fitness, by site and new letter:
Y73: W -0.041 | T -0.174 | P -0.149 | M -0.108 | K -0.085 | L -0.029 | Q -0.078 | S -0.011 | N 0.043 | R -0.055 | V -0.171
T77: G -0.057 | D 0.077 | S 0.024 | N 0.059 | P -0.003 | Y -0.084 | R 0.09 | V -0.065 | H -0.084 | W -0.111 | I -0.261 | E 0.034 | M -0.164 | C 0.04 | A -0.019 | Q -0.099 | F -0.073 | L -0.072
V76: C 0.03 | S 0.092 | I -0.363 | Y -0.087 | A 0.001 | W -0.028 | H -0.114 | F -0.012 | D -0.102 | Q -0.007 | P 0.001 | N 0.05 | T -0.03 | E 0.037 | G -0.011 | K 0.032 | M 0.035
P78: Y -0.098 | V -0.182 | T -0.191 | S -0.038 | E -0.44 | M -0.289 | N -0.219 | H -0.191 | G -0.239 | K -0.086 | F -0.37 | R 0.049 | C 0.072 | A -0.05
I75: C 0.017 | S 0.038 | Y -0.013 | Q -0.026 | A -0.04 | M 0.1 | G -0.033 | H -0.172 | F -0.109 | N -0.177 | L -0.017 | W -0.057 | P -0.039 | V 0.024 | K -0.219
F74: A 0.095 | V -0.003 | L -0.046 | K 0.024 | H -0.248 | P -0.445 | I -0.001 | T -0.031 | C -0.042 | M 0.073 | E -0.004 | D -0.038 | N -0.361 | Y -0.065 | Q 0.006 | W -0.002 | S 0.077 | G 0.052

Variants of: B2
Experiment: as above
Conditions: Homo sapiens

Abundance fitness of substitutions, site by site:
K2: N -0.128 | W -0.159 | P -0.572 | D -0.496 | S -0.201 | E 0.007 | L -0.444 | C -0.136 | R -0.042
E10: W -0.728 | R -0.552 | A -0.425 | M -0.608 | S -0.454 | F -0.895 | D -0.402 | Q -0.216 | K -0.354 | T -0.782 | C -0.678 | G -0.509 | I -0.781
L15: G -0.391 | M -0.185 | N -0.308 | Y -0.661 | D -0.599 | Q -0.339 | R -0.712 | P -0.6 | S -0.215 | C 0.149 | K -0.361 | V -0.37 | E -0.38 | A 0.11 | W -1 | T -0.43
L1: N 0.092 | F -0.19 | K -0.05 | G -0.364 | E 0.136 | W -0.045 | S -0.12 | Y 0.02 | I 0.108 | V -0.134 | R -0.262
E4: P -0.394 | L -0.919 | A -0.667 | T -0.171 | D -0.035 | V -1.08 | Y -0.804 | F -0.679 | M -0.41 | N -0.017 | H -0.046 | G -0.574 | C -0.518 | S -0.23 | Q -0.317 | I -0.464
E5: L -0.548 | P -0.335 | Q -0.306 | T -0.271 | V -0.329 | C -0.183 | Y -0.424 | W -0.776 | S -0.188 | A -0.218 | R -0.239 | G -0.359
T7: M -0.598 | P -0.227 | H -0.48 | D -0.111 | L -0.768 | A -0.519 | S -0.071 | K -0.184 | W -0.518 | N -0.249 | G -0.199 | E -0.347 | V -1.29 | Q -0.336 | C -0.594
L17: R -0.155 | W -0.307 | G -0.238 | F -0.271 | T -0.081 | P -0.988 | M -0.087 | S -0.249 | Q -0.032 | E -0.089 | C -0.102 | V -0.054
R12: C -0.387 | L -0.523 | Q -0.016 | T -0.199 | D -0.488 | K -0.072 | G -0.593 | V -0.304 | Y -0.495 | P -0.602 | M -0.32 | N -0.961 | S -0.29 | A -0.361
V8: Y -0.576 | S -0.28 | C -0.486 | K -0.066 | E 0.026 | L -0.099 | A 0.142 | W -0.03 | R -0.309 | P -0.39 | M -0.206 | H -0.486 | G -0.429 | Q -0.648 | D -0.38 | N -0.387
L6: H -0.434 | E -0.369 | I -0.266 | V -0.399 | T -0.632 | D -0.356 | W -0.175 | G -0.533 | A -0.314 | N -0.166 | Y -0.384 | R -0.458 | C -0.299 | Q -0.236
L11: M -0.331 | Y -0.497 | V -0.59 | E -0.864 | H -0.811 | A -0.678 | R -0.565 | K -0.623 | F -1.08 | Q -0.568 | W -0.897 | S -0.542 | P -0.64 | G -0.657 | I -0.206 | C -1.03
L3: A -0.275 | Y -0.556 | E -0.249 | W -0.434 | K 0.017 | V -0.272 | G -0.304 | P -0.14 | C -1.03 | F 0.065 | Q -0.296 | R -0.416 | S -0.22 | D -0.098
S9: P -0.291 | V -0.121 | N 0.182 | D 0.173 | R -0.09 | L -0.275 | E 0.181 | G -0.111 | C -0.347 | K 0.084 | Y -0.345 | M 0.122 | W -0.142 | Q 0.164 | A 0.016
Q14: C -0.313 | T -0.45 | N -0.441 | F -0.401 | P -0.863 | W -0.141 | Y -0.326 | K -0.175 | A 0.135 | R -0.174 | M 0.023 | D -0.551 | V -0.222 | G -0.35 | H -0.192
Q13: G -0.251 | H 0.054 | M -0.134 | V -0.11 | F -0.101 | K 0.015 | W -0.28 | R -0.23 | A -0.285 | E -0.1 | D -0.075 | L -0.174 | I -0.036 | S -0.203 | C -0.163
R16: E 0.001 | F -0.086 | A 0.04 | G -0.081 | C -0.107 | Q -0.207 | W -0.129 | M -0.07 | Y -0.613 | K 0.284 | P -0.96 | D -0.331 | S -0.095 | L -0.027
R18: A -0.009 | G -0.523 | E -0.14 | K -0.119

Source: the Human Domainome abundance scans (Beltran et al. 2025)
